Measurements reported in US20250276092A1 (Regeneron, published 2025).

Tests used:
[1] = biological target: T1, human CD40 expressed on cells (human, UniProt P25942 21-277); test: cell-based or functional assay
[2] = biological target: T1, human CD40 expressed on cells; test: cell-based or functional assay; remark: listed apart in the source
[3] = biological target: T1, human CD40 expressed on cells; test: cell-based or functional assay; remark: listed apart in the source
[4] = biological target: T2, human CD40 extracellular domain expressed with a C-terminal myc-myc-hexahistidine tag (human); test: ELISA, blocks 40 nM hCD40-mmH binding to coated 9His-hCD40L
T2 construct: also called hCD40-MMH; hCD40-mmH
Experimental: In the blocking assay, 9His-hCD40L was passively absorbed at a concentration of 5 μg/mL in PBS on a 96-well microtiter plate overnight at 4° C. […] In a separate 96-well microtiter plate, a fixed amount of 40 nM hCD40-mmH was pre-mixed with one of the following antibodies, at concentrations ranging from 977 pM to 1 μM in PBS+0.5% BSA: (1) anti-CD40×CD40 bispecific antibodies (REGN16431, REGN16432, REGN16634, and REGN16335); (2) parental anti-CD40 mAbs (bivalent antibodies comprising 2 fragment antigen-binding [Fab] arms identical to one of anti-CD40 Fab of anti-CD40×CD40 antibodies); (3) anti-CD40×Irrelevant antibodies (bivalent antibodies that incorporate one Fab arm identical to one of anti-CD40 Fab of anti-CD40×CD40 antibodies and another Fab arm specific to an irrelevant antigen); and (4) human IgG4 with Fc mutation isotype control antibodies (REGN7540 and REGN4513). The fixed concentration of hCD40-mmH was selected to be near the concentration (EC₅₀ value) that generated 50% of the maximal binding to the plate-adhered 9His-hCD40L. After one-hour incubation, the antibody-antigen complexes were transferred to the microtiter plate coated with 9His-hCD40L. After one hour incubation at room temperature, the plates were washed, and plate-bound hCD40-mmH protein was detected with horseradish peroxidase (HRP) conjugated goat anti-c-Myc antibody. The plates were then developed using TMB substrate solution (BD Biosciences) according to the manufacturer's recommended procedure and the absorbance at 450 nm (OD₄₅₀) was measured on a SpectraMax i3× plate reader.
Binding data were analyzed using a sigmoidal (four-parameter logistic) dose-response model with GraphPad Prism™ software. […] The percent blocking of tested antibodies at the highest tested concentration ([…]) was calculated based on the formula shown below: […]

[5] = biological target: T1, human CD40 expressed on cells; test: cell-based or functional assay; remark: listed apart in the source
[6] = biological target: T1, human CD40 expressed on cells; test: cell-based or functional assay; remark: listed apart in the source
[7] = biological target: T1, human CD40 expressed on cells; test: cell-based or functional assay; remark: listed apart in the source
[8] = biological target: T1, human CD40 expressed on cells; test: cell-based or functional assay; remark: listed apart in the source
[9] = biological target: T1, human CD40 expressed on cells; test: cell-based or functional assay; remark: listed apart in the source
[10] = biological target: T1, human CD40 expressed on cells; test: cell-based or functional assay; remark: listed apart in the source

T2 sequence (chain, as listed by the source limits assumed): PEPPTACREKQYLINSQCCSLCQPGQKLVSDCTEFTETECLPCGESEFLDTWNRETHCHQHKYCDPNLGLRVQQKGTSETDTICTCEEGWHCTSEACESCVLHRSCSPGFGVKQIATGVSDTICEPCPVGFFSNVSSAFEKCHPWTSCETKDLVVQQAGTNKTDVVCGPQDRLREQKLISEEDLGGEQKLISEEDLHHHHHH
T1 sequence (P25942 21-277): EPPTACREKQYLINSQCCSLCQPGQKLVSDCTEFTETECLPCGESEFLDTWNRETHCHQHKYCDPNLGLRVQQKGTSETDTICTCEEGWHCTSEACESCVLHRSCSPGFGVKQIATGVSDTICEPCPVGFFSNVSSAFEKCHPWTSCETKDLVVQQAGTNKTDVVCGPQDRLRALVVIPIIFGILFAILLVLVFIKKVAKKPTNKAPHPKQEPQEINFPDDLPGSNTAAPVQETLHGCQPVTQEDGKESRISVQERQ

Row | IC50, NFkB-luc Raji, 900 pM hCD40L [1] | Max % activation, NFkB-luc Raji, no ligand [1] | Max % inhibition, NFkB-luc Raji, 900 pM hCD40L [1] | IC50, NFkB-luc Ramos, 500 pM hCD40L [2] | Max % activation, NFkB-luc Ramos, no ligand [2] | Max % inhibition, NFkB-luc Ramos, 500 pM hCD40L [2] | IC50, NFkB-luc THP-1, 10 nM hCD40L [3] | Max % activation, NFkB-luc THP-1, no ligand [3] | Max % inhibition, NFkB-luc THP-1, 10 nM hCD40L [3] | % Blocking at highest mAb concentration [4] | % max blockade relative to no mAb, TNFa, B cells, donor 1 [5] | % max blockade relative to no mAb, TNFa, B cells, donor 2 [5] | % max blockade relative to no mAb, TNFa, B cells, donor 3 [5] | % max blockade relative to no mAb, IL-10, B cells, donor 1 [6] | % max blockade relative to no mAb, IL-10, B cells, donor 2 [6] | % max blockade relative to no mAb, IL-10, B cells, donor 3 [6] | % max blockade relative to no mAb, IL-6, B cells, donor 1 [7] | % max blockade relative to no mAb, IL-6, B cells, donor 2 [7] | % max blockade relative to no mAb, IL-6, B cells, donor 3 [7] | % max blockade relative to no mAb, TNFa, assay #2, donor 1 [8] | Binder | other results
1 | 1.35e-10 M | 11% | 81% | 1.89e-10 M | 10% | 77% | 1130 pM | 4% | 96% | 91% |  |  |  |  |  |  |  |  |  |  | REGN17544 (antibody, V domains shown) VH: EVQLVESGGGLVQPGGSLRLSCAASGFTFGSYGMAWVRQAPGKGLEWVSAISGSGDYTNYADSVKRRFTISRDNSKNTLYLQMSSLRAEDTAVYYCAKEKTGTTGYLYSGMDVWGQGTTVTVSS VL: not shown | 
2 | 5.76e-11 M | 13% | 113% | 6.93e-11 M | 6% | 91% | 553 pM | 1% | 98% | 98% | 44% | 63.5% | 68.5% | 74.2% | 91.4% | 92.4% | 84.5% | 92% | 92% | 62.8% | REGN16334 (bispecific antibody, human IgG4 S228P, kappa, also called REGN16634 [sic]) heavy 1: QLQLQESGPGLVRPSETLSLTCSVSGASMNTNNYYWGWIRQPPGKGLEWIGSGYYNGNTYYNPSLKSRVTISVDTSKNQFSLKLNSVTAADTAVYYCARQTPPRIIGSPNIWGQGTMVTVSSASTKGPSVFPLAPCSRSTSESTAALGCLVKDYFPEPVTVSWNSGALTSGVHTFPAVLQSSGLYSLSSVVTVPSSSLGTKTYTCNVDHKPSNTKVDKRVESKYGPPCPPCPAPGGGGPSVFLFPPKPKDTLMISRTPEVTCVVVDVSQEDPEVQFNWYVDGVEVHNAKTKPREEQFNSTYRVVSVLTVLHQDWLNGKEYKCKVSNKGLPSSIEKTISKAKGQPREPQVYTLPPSQEEMTKNQVSLTCLVKGFYPSDIAVEWESNGQPENNYKTTPPVLDSDGSFFLYSRLTVDKSRWQEGNVFSCSVMHEALHNHYTQKSLSLSLGK heavy 2: EVQLVESGGGLVQPGGSLRLSCAASGFTFGSYGMAWVRQAPGKGLEWVSAISGSGDYTNYADSVKRRFTISRDNSKNTLYLQMSSLRAEDTAVYYCAKEKTGTTGYLYSGMDVWGQGTTVTVSSASTKGPSVFPLAPCSRSTSESTAALGCLVKDYFPEPVTVSWNSGALTSGVHTFPAVLQSSGLYSLSSVVTVPSSSLGTKTYTCNVDHKPSNTKVDKRVESKYGPPCPPCPAPGGGGPSVFLFPPKPKDTLMISRTPEVTCVVVDVSQEDPEVQFNWYVDGVEVHNAKTKPREEQFNSTYRVVSVLTVLHQDWLNGKEYKCKVSNKGLPSSIEKTISKAKGQPREPQVYTLPPSQEEMTKNQVSLTCLVKGFYPSDIAVEWESNGQPENNYKTTPPVLDSDGSFFLYSRLTVDKSRWQEGNVFSCSVMHEALHNRFTQKSLSLSPGK light: not shown | % max blockade relative to no mAb, TNFa, assay #2, donor 2 [8]: 51.1%; % max blockade relative to no mAb, IL-6, assay #2, donor 1 [9]: 88.9%; % max blockade relative to no mAb, IL-6, assay #2, donor 2 [9]: 89.2%; % max blockade relative to no mAb, IL-10, assay #2, donor 1 [10]: 87.7%; % max blockade relative to no mAb, IL-10, assay #2, donor 2 [10]: 89.9%
3 | 4.94e-11 M | 9% | 102% | 3.86e-11 M | 5% | 93% | 221 pM | 3% | 98% | 96% | 45% | 64.7% | 61.6% | 78.5% | 93.6% | 89.8% | 83.2% | 91.4% | 91.4% | 62.4% | REGN16335 (bispecific antibody, human IgG4 S228P, kappa) heavy 1: EVQLVESGGGLVQPGGSLRLSCAASGFTFSSYAMNWVRQAPGKGLEWVSIISGTIGKTYYADSVKGRFTISRDNSKNTLYLQMNSLRGEDTAVYYCAKDTERDITGSPFDYWGQGTLVTVSSASTKGPSVFPLAPCSRSTSESTAALGCLVKDYFPEPVTVSWNSGALTSGVHTFPAVLQSSGLYSLSSVVTVPSSSLGTKTYTCNVDHKPSNTKVDKRVESKYGPPCPPCPAPGGGGPSVFLFPPKPKDTLMISRTPEVTCVVVDVSQEDPEVQFNWYVDGVEVHNAKTKPREEQFNSTYRVVSVLTVLHQDWLNGKEYKCKVSNKGLPSSIEKTISKAKGQPREPQVYTLPPSQEEMTKNQVSLTCLVKGFYPSDIAVEWESNGQPENNYKTTPPVLDSDGSFFLYSRLTVDKSRWQEGNVFSCSVMHEALHNHYTQKSLSLSLGK heavy 2: EVQLVESGGGLVQPGGSLRLSCAASGFTFGSYGMAWVRQAPGKGLEWVSAISGSGDYTNYADSVKRRFTISRDNSKNTLYLQMSSLRAEDTAVYYCAKEKTGTTGYLYSGMDVWGQGTTVTVSSASTKGPSVFPLAPCSRSTSESTAALGCLVKDYFPEPVTVSWNSGALTSGVHTFPAVLQSSGLYSLSSVVTVPSSSLGTKTYTCNVDHKPSNTKVDKRVESKYGPPCPPCPAPGGGGPSVFLFPPKPKDTLMISRTPEVTCVVVDVSQEDPEVQFNWYVDGVEVHNAKTKPREEQFNSTYRVVSVLTVLHQDWLNGKEYKCKVSNKGLPSSIEKTISKAKGQPREPQVYTLPPSQEEMTKNQVSLTCLVKGFYPSDIAVEWESNGQPENNYKTTPPVLDSDGSFFLYSRLTVDKSRWQEGNVFSCSVMHEALHNRFTQKSLSLSPGK light: not shown | % max blockade relative to no mAb, TNFa, assay #2, donor 2 [8]: 52.5%; % max blockade relative to no mAb, IL-6, assay #2, donor 1 [9]: 88.4%; % max blockade relative to no mAb, IL-6, assay #2, donor 2 [9]: 87%; % max blockade relative to no mAb, IL-10, assay #2, donor 1 [10]: 88.5%; % max blockade relative to no mAb, IL-10, assay #2, donor 2 [10]: 87.8%
4 | 4.28e-11 M | 14% | 90% | 4.07e-11 M | 6% | 88% | 334 pM | 0% | 98% | 94% |  |  |  |  |  |  |  |  |  |  | REGN17288 (antibody, V domains shown) VH: QLQLQESGPGLVRPSETLSLTCSVSGASMNTNNYYWGWIRQPPGKGLEWIGSGYYNGNTYYNPSLKSRVTISVDTSKNQFSLKLNSVTAADTAVYYCARQTPPRIIGSPNIWGQGTMVTVSS VL: not shown | 
